The text below walks through data of US20100297734, “Fusion Tag Comprising an Affinity Tag and an EF-Hand Motif Containing Polypeptide and Methods of Use Thereof” (University Health Network, published 2010).

In the series the target is p53(1-360) (Homo sapiens, UniProt P04637 P04637:1-360). The series can be described thus: EMSA; 0.10 nM DNA, 12 uM p53(1-360), PBS, 25 C, 2 ug poly(dI-dC) competitor, 1 h; 6% gel in TBM. The note with it: tags: HiCaM tag (His6-calmodulin) removed by thrombin; expressed in E. coli BL21(DE3)Star; chain copies: 4 inferred; label: 32P. Here is the method:
Functional Assays of purified, untagged constructs—The excitation and emission spectra (excited at 488 nm) of eGFP were recorded from 300 to 700 nm at 25° C. in a Fluoromax-3 Spectrofluorometer. For p53(1-360), a ³²P-labelled restriction fragment harbouring an icosamer recognition sequence (5′-[…]-3′ (SEQ ID NO:6)) (0.10 nM) was incubated alone, with 50 ng/μL BSA or 12 μM p53(1-360) in PBS at 25° C. with 2 μg poly(dI-dC)˜poly(dl-dC) for 1 hour before separation in a 6% polyacrylamide gel in TBM buffer at 25 V/cm. The gel was then exposed to a phosphor screen for 1 hour and imaged in a Typhoon® Phosphorimager (GE Healthcare). Human p53(1-360) (7 μM) was also crosslinked with 0.125% glutaraldehyde at 25° C. for 12 min. and separated on SDS-PAGE, followed by Coomassie Blue staining (Poon et al. 2007).
(A gel shift assay detects complexes by their altered migration in electrophoresis.)

Chain of p53(1-360) (P04637 1-360, one chain of several): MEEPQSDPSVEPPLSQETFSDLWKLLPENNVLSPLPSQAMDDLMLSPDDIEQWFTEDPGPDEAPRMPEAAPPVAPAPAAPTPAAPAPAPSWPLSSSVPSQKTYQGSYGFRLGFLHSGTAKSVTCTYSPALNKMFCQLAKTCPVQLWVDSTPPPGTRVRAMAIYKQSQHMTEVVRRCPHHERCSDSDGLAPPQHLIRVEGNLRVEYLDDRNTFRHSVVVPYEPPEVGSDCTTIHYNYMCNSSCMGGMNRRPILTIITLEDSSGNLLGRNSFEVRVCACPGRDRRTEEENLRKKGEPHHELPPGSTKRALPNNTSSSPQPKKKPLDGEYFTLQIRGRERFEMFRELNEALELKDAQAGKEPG

B1: p53 icosamer recognition sequence (dsDNA)
DNA 1: AGGCATGTCTAGGCATGTCT
DNA 2: AGACATGCCTAGACATGCCT
Regarding B1, the binding result is on record as “binds”.
